Results as given in patent US20140010886A1, “COMPOSITIONS COMPRISING SACCHARIDE BINDING MOIETIES AND METHODS FOR TARGETED THERAPY” (GEORGIA TECH RESEARCH CORPORATION, priority 2011, published 2014).

B1: ECL: erythrina cristagalli lectin, recognizes the glycan moiety GlcNAc (protein, listed as Homo sapiens)
chain: VETISFSFSEFEPGNNDLTLQGAAIITQSGVLQLTKINQNGMPAWDSTGRTLYTKPVHIWDMTTGTVASFETRFSFSIEQPYTRPLPADGLVFFMGPTKSKPAQGYGYLGVFNNSKQDNSYQTLAVEFDTFSNPWDPPQVPHIGIDVNSIRSIKTQPFQLDNGQVANVVIKYDASSKILLAVLVYPSSGAIYTIAEIVDVKQVLPEWVDVGLSGATGAQRDAAETHDVYSWSFHASLPETND
B2: PNA: lectin peanut agglutinin, recognizes the glycan moiety GalNAc (protein, UniProt P02872 24-273, looked up)
Galactose-binding lectin: AETVSFNFNSFSEGNPAINFQGDVTVLSNGNIQLTNLNKVNSVGRVLYAMPVRIWSSATGNVASFLTSFSFEMKDIKDYDPADGIIFFIAPEDTQIPAGSIGGGTLGVSDTKGAGHFVGVEFDTYSNSEYNDPPTDHVGIDVNSVDSVKTVPWNSVSGAVVKVTVIYDSSTKTLSVAVTNDNGDITTIAQVVDLKAKLPERVKFGFSASGSLGGRQIHLIRSWSFTSTLITTTRRSIDNNEKKIMNMASA

Key:
[1] = system: DBA positive sorted cells (CTB-1 GBM-CSCs); assay: Lectin reactivity of DBA positive sorted GBM-CSCs (flow cytometry); type: binding, human; details: for lectin reactivity of DBA positive sorted cells: day 1; for lectin reactivity of DBA positive sorted cells by day 12: day 12 of differentiation
Excerpt: The percent of cells with specific carbohydrate expression as determined by flow cytometry using 8 different lectins. The data are means+/−SD of 3 independent assays of CTB-1 GBM-CSCs. CTB-1 cell line was stained with CD133, OCT4, and SOX2 antibody in addition to lectin staining Statistical significance (p≦0.05) is indicated by asterisk.
DBA lectin positive cells made up less than 1% of the total population and phenotypically appeared to proliferate at a much slower rate than the DBA negative population. […] Increased proliferation in DBA negative populations can be visualized via microscopy at day 1 and day 12 (FIG. 7). At day 12 the DBA negative population appears to be denser than the DBA positive population (FIG. 7), however, both populations are able to produce GFAP positive cells (Astrocytes) identical to the CD133 positive sorted cells (FIG. 7). […] DBA negative sorted cells contradict the aforementioned, and show low reaction towards GalNAc and GlcNAc recognizing lectins and this continues to decrease by day 12 (FIG. 8B). Con A remains high throughout in both populations and serves as a positive control (FIGS. 8A and 8B). However, GBM-CSC marker CD133-G and general stem cell markers OCT 4 and SOX 2 are high in the DBA positive sorted cells, and similar to DBA reactivity, decreases substantially by day 12 of differentiation (FIG. 8A). However, in the DBA negative population these stem cell markers uniformly are low at day one and are almost non-existent by day 12 (FIG. 8A). Until now CD133 has been considered the only marker for CSCs derived from GBM brain tumors. However, using cell sorting technology, DBA lectin, which recognizes GalNAc, we were able to separate CD133^+ cells from CD133− cells.

[2] = system: CD133+ GBM-CSCs; assay: Lectin panel labeling of CD133+ GBM-CSCs during differentiation (flow cytometry); type: binding, human; details: for recognition of GBM-CSCs by lectin after differentiation: after 12 days of differentiation; for recognition of undifferentiated GBM-CSCs by lectin: day 1, undifferentiated CD133+ GBM-CSCs
Experimental: The fact that lectin moieties recognize carbohydrates located on the surface of cells makes them a great tool to identify changes in glycosylation patterning during differentiation. We used a panel of 20 lectins to study the patterning of CD133^+ GBM-CSCs surface glycosylation during differentiation (Table 1). Neurospheres derived from CD133^+ GBM-CSCs were grown as mentioned above and were plated onto polyornithin and laminin coated tissue culture grade plastics. Within 10 hours the neuroshperes adhered and neurite formations were observed. Differentiation continued for 12 days, and harvested cells (day 1 and day 12) were labeled with our panel of lectins (FIG. 2A). […] Furthermore, the recognition and decrease in recognition of GalNAc and GlcNAc coincide with the expression of GBM-CSC marker CD133-glycosylation (CD133-G) and general stem cell markers OCT 4 and SOX2 (FIG. 3C). OCT 4 and SOX2 have been well studied in GBMs and are accepted indicators of sternness in GBM cell lines.

Molecule	lectin reactivity of DBA positive sorted cells [1]	lectin reactivity of DBA positive sorted cells by day 12 [1]	recognition of GBM-CSCs by lectin after differentiation [2]	recognition of undifferentiated GBM-CSCs by lectin [2]
SBA: lectin soybean agglutinin, recognizes the glycan moiety GalNAc	high reactivity	decrease	markedly decreased	highly recognized
B1	highly reactive	decreased	noticeably decreased	highly recognized
B2	high reactivity	decrease	markedly decreased	highly recognized
